Results taken from publication doi:10.1101/2024.08.16.608256 (bioRxiv, 2024).

Target: the molecule itself
Assay: SDS-resistant dimer on SDS-PAGE with western blot

B1: ΔN(30)-YqjD (domain or fragment, E. coli, UniProt P64581 31-101, looked up)
chain: KSKEELSKIRSKAEQALKQSRYRLGETGDAIAKQTRVAAARADEYVRENPWTGVGIGAAIGVVLGVLLSRR
binding result: binds

B2: ΔN(12)-YqjD (domain or fragment, E. coli, UniProt P64581 13-101, looked up)
chain: ELKSLSDTLEEVLSSSGEKSKEELSKIRSKAEQALKQSRYRLGETGDAIAKQTRVAAARADEYVRENPWTGVGIGAAIGVVLGVLLSRR
binding result: binds

B3: ΔN(60)-YqjD (domain or fragment, E. coli, UniProt P64581 61-101, looked up)
chain: IAKQTRVAAARADEYVRENPWTGVGIGAAIGVVLGVLLSRR
binding result: binds

B4: ΔN(45)-YqjD (domain or fragment, E. coli, UniProt P64581 46-101, looked up)
chain: ALKQSRYRLGETGDAIAKQTRVAAARADEYVRENPWTGVGIGAAIGVVLGVLLSRR
binding result: binds

B5: YqjD (wild type, full-length, N-terminal Xpress-His6-tag) (natural protein, E. coli, UniProt P64581 1-101, looked up)
chain: MSKEHTTEHLRAELKSLSDTLEEVLSSSGEKSKEELSKIRSKAEQALKQSRYRLGETGDAIAKQTRVAAARADEYVRENPWTGVGIGAAIGVVLGVLLSRR
stoichiometry N: 2
